{"source": "patent US7230094B2", "about": "“Neutral sphingomyelinase antisense ribozyme and uses thereof” (priority 2001, dated 2007)", "molecules": {"B1": {"name": "N-SMase ribozyme: U1 snRNA-derived hammerhead antisense ribozyme targeting N-SMase mRNA, expressed from vector pNSMRz; stably transfected MG63 clones CC and C-B (nucleic acid, listed as Homo sapiens)", "chain": "AUACUUACCUGGCAGGGGAGAUACCAUGAUCACGAAGGUGGUUUUCCCAGGGCGAGGCUUAUCCAUUGGCCUCCGGAUGUGCUGACCCCUGCGAUUUCCCCAAAUGUGGGAAACUCGACUGCAGAAUAUGUCAUCAUAUUGCCUGAUGAGUCCGUGAGGACGAAACCUCUUCACAUGAAAAAGUGGGGCUGCGUUCGCGCUUCCCCG"}}, "assay_type_in_all_cases": "cell-based, human", "key": {"[1]": {"tested_on": "A-SMase", "experiment": "Acid sphingomyelinase activity in cell extracts, [14C]sphingomyelin substrate", "settings": "for Acid SMase activity: MG-63 WT 2.7, L-3 LacZ/sham 2.3, average of two batches; for Reduction in A-SMase activity: ribozyme-transfected cells compared to sham-transfected and untransfected controls", "procedure": "Confluent culture of cells were harvested, washed, and pellets lysed in buffer containing 0.1% Triton™ X-100, 25 mM Tris (pH 7.4) buffer, 5 mM EDTA, 1 mM phenylmethylsulfonylfluoride and 2 μg each of chymostatin, leupeptin, antipain, and pepstatin A. The activity levels of acid and neutral sphingomyelinase were measured in cell extracts (100 μg protein) in duplicate as described previously employing […] as the substrate.\nActivities of A-SMase and N-SMase were also measured according to methods described in Chatterjee, S. and Ghosh, N. (1996) Glycobiology 6:303–311, incorporated herein by reference, with minor modifications. In brief, 5×10^6 MG63 cells were scraped from the culture plates, washed with PBS, and disrupted by repeated passage through a 25-gauge needle. Nuclei and cell debris were pelleted at 800×g for 5 min. Supernatant fluid was collected, and the protein concentration was measured using the Bio-Rad (Hercules, Calif.) protein detection kit. To measure SMase activity, 50 μg of protein was incubated for 90 min (the reaction was linear for up to 120 min) at 37° C. in buffer (200 μl final volume) containing 250 mM sodium acetate and 1 mM EDTA, pH 5.0, for A-SMase or 250 mM Tris-Cl, pH 7.4, with or without 6 mM MgCl2 for N-SMase, and 0.75 μl of [methyl-^14C]sphingomyelin (SM) (0.2 mCi/ml; 56.6 mCi/mmol). Radioactive phosphocholine produced from [^14C]SM was extracted with 800 μl of chloroform-methanol (2:1, vol/vol) and 100 μl of H2O. [^14C]phosphocholine in the aqueous phase was measured by scintillation counting."}, "[2]": {"tested_on": "N-SMase", "experiment": "TNF-α and Fas ligand induced N-SMase activity in WT and mutant cells", "settings": "for Basal activity of N-SMase: unstimulated CC cells, 2.7±0.1 in MG63 control cells, ±S.D., N=3", "procedure": "FIGS. 4A–4B depict the effects of incubation with TNF-α (FIG. 4A) and Fas ligand (FIG. 4B) over time on the activity of N-SMase in mutant and WT cells. Confluent cultures of WT (MG-63) and mutant (CC) cells were incubated with serum free medium with or without TNF-α ([…]) or Fas ligand (1 ng/ml). At the indicated intervals, cells were harvested, centrifuged, and lysed in buffer containing 0.1% Triton™ X-100, 25 mM Tris (pH 7.4), 5 mM EDTA, 1 mM phenylmethylsulfonyl fluoride (PMSF), and 2 μg each of chymostatin, leupeptin, antipain, and pepstatin A. 100 μl of a reaction mixture containing 50 mM Tris (pH 7.4), 5 mM MgCl2, 0.05% Triton™ X-100, 5 mM dithiothreitol (DTT) and 10 nmol [^14C] sphingomyelin (100,000 cpm) was added to 5–10 μl of cell lysate (100 μg protein). The basal activity of N-SMase was 2.7±0.1 nmol/mg protein/hr in MG63 cells and 0.67±0.1 nmol/mg protein/hr in CC cells. These levels were defined as 100% activity. Error bars indicate ±S.D. (N=3).\nTumor necrosis factor alpha (TNF-α) is known to induce programmed cell death through stimulation of sphingomyelinase activity and generation of ceramide. This example describes the ability of the ribozyme directed against N-SMase to inhibit this pathway. The effects of incubation with TNF-α and Fas ligand over time on the activity of N-SMase in mutant and WT cells are shown in FIGS. 4A and 4B, respectively. Confluent cultures of WT (MG-63) and mutant (CC) cells were incubated with serum free medium with or without TNF-α ([…]) or Fas ligand (1 ng/ml), and the activity of N-SMase was determined by measuring the cleavage of [^14C]sphingomyelin. At 0, 10, 20, 30, 40, 50, and 60 minutes, cells were harvested, centrifuged, and lysed in buffer containing 0.1% Triton™ X-100, 25 mM Tris (pH 7.4), 5 mM EDTA, 1 mM phenylmethylsulfonyl fluoride (PMSF), and 2 μg each of chymostatin, leupeptin, antipain, and pepstatin A. 100 μl of a reaction mixture containing 50 mM Tris (pH 7.4), 5 mM MgCl2, 0.05% Triton™ X-100, 5 mM dithiothreitol (DTT) and 10 nmol [^14C]sphingomyelin (100,000 cpm) was added to 5–10 μl of cell lysate (100 μg protein). The basal activity of N-SMase was 2.7±0.1 nmol/mg protein/hr in MG63 cells and 0.67±0.1 nmol/mg protein/hr in CC cells. These levels were defined as 100% activity."}, "[3]": {"tested_on": "MG-63 cells", "experiment": "Apoptosis by DAPI staining and counting of apoptotic cells", "settings": "for Apoptosis in response to TNF-α and Fas-L: cells with ribozyme-induced deficiency of N-SMase, TNF-α 20 ng/ml, Fas-L 1 ng/ml, 24 hr", "procedure": "FIG. 6 depicts a quantitative analysis of the effects of TNF-α, C2-Ceramide and Fas-ligand on apoptosis in mutant (CC) and WT (MG-63) cells, as well as wild type/mock transfected cells. Cells were grown on glass cover slips and incubated for 24 hours with TNF-α (20 ng/ml), cell-permeable ceramide (C2-Ceramide) (10 ng/ml) or Fas-L (1 ng/ml). Cells were fixed and stained with DAPI and photographed at 50× magnification. Apoptotic cells were counted using a hemocytometer. The basal levels of apoptotic cells were: MG-63 (3%); L-3 (3%); and CC (2.8%). Errors bars indicate ±S.D. (N=2).\nWT (MG-63), LacZ (L-3) and mutant (CC) cells were grown on glass cover slips and incubated for 24 hr with TNF-α (20 ng/ml), cell-permeable ceramide (C2-ceramide) (10 ng/ml) or Fas-L (1 ng/ml). Cells were fixed and stained with DAPI stain and photographed (50×). Apoptotic cells were counted using a hemocytometer and compared to total cell counts per field. Basal levels of apoptosis were 3% untransfected, 3% control transfection, and 2.8% ribozyme transfection."}}}
{"molecule": "B1", "values": [{"measurement": "Acid SMase activity", "setting": "[1]; MG-63 clone C-B (mutant)", "value": 2.2, "unit": "nmol/mg protein/hr"}, {"measurement": "Acid SMase activity", "setting": "[1]; MG-63 clone CC (mutant)", "value": 2.1, "unit": "nmol/mg protein/hr"}, {"measurement": "Reduction in A-SMase activity", "setting": "[1]", "value": "unchanged"}, {"measurement": "Reduction in A-SMase activity", "setting": "[1]; listed as ribozyme", "value": "no discernable reduction"}, {"measurement": "N-SMase activity under cytokine stimulation", "setting": "[2]; ribozyme cells stimulated with TNF-α and Fas-L, sham-transfected cells 4.0", "value": 0.75, "unit": "nmol/mg protein/hr"}, {"measurement": "Change of N-SMase activity after addition of TNF-α", "setting": "[2]; ribozyme transfected cells, 0-60 min, FIG. 4A", "value": "no significant difference"}, {"measurement": "Basal activity of N-SMase", "setting": "[2]", "value": "0.67±0.1", "unit": "nmol/mg protein/hr"}, {"measurement": "Basal activity of N-SMase", "setting": "[2]; listed as antisense ribozyme", "value": 0.67, "unit": "nmol/mg protein/hr"}, {"measurement": "Basal level of apoptotic cells", "setting": "[3]; CC (ribozyme transfection), DAPI, 3% untransfected, 3% control transfection", "value": 2.8, "unit": "%"}, {"measurement": "Apoptosis in response to TNF-α and Fas-L", "setting": "[3]", "value": "marked hyporesponsiveness"}, {"measurement": "Apoptosis in response to TNF-α and Fas-L", "setting": "[3]; listed as antisense ribozyme", "value": "not altered"}, {"measurement": "Apoptosis in response to TNF-α and Fas-L", "setting": "[3]; listed as ribozyme", "value": "marked resistance to apoptosis"}]}
